T1: Mouse Id1: Histidine (mouse, UniProt P20067-2 1-148)
T1 construct: E. coli fusion protein (vector pGW07); also called m-Id1-His; not shown: His-tag
T1 sequence: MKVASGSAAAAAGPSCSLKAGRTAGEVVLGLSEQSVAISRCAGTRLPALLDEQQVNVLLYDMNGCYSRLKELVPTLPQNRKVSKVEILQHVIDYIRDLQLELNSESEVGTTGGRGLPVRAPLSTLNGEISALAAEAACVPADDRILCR

T2: Human Id2: Histidine (human, UniProt Q02363 1-134, limits assumed)
T2 construct: E. coli fusion protein (vector pGW07); also called h-Id2: His; not shown: His-tag
T2 sequence (looked up): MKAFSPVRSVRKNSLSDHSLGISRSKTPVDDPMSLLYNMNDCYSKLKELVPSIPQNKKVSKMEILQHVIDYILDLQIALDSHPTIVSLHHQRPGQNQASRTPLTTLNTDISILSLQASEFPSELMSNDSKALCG

T3: Human Id3: Histidine (human, UniProt Q02535 1-119, limits assumed)
T3 construct: E. coli fusion protein (vector pGW07); also called h-Id3: His; not shown: His-tag
T3 sequence (looked up): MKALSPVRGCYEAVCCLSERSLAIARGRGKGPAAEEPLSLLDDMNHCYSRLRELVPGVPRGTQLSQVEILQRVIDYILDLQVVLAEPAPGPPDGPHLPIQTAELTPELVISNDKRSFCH

B1: rabbit monoclonal anti-mouse Id1, clone #BCH-1/#37-2 (antibody, V domains shown)
VH: QSVEESGGRLVTPGTPLTLTCKVSGFDINSYAMDWFRQAPGKGLEWIGMMSTRGNTYYTSWAKGRFTISKTSSTTVDLKMTSLTTEDTATYFCARGGLWGPGTLVTVSS
VL: RVLTQTASPVSAAVGGTVTINCQASQSVYNGNRLGWYQLKPGQSPKELIHDASTLASGVPSRFRGSGSGTQFTLTINDVQCDDAATYYCVGSYACSTGDCNVFGGGTEVVVK
notes: Rabbit IgG from hybridoma, Protein G purified; also called m Id1 MoAb 37-2; Rabbit Monoclonal Anti-Mouse Id1 (#37-2)

Legend:
[1] = molecular target: Human Id1: Histidine (human) (UniProt P41134); assay: sandwich ELISA, 5-3-coated wells, human Id1:His 1.0 ng/ml, detected with rabbit polyclonal B-5133-HRP
Sequence of Human Id1: Histidine (human) (P41134 whole entry): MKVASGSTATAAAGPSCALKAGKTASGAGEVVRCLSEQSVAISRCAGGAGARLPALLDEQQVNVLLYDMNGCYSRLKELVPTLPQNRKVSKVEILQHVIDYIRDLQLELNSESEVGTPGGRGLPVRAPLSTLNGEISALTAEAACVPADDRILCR

[2] = molecular target: T4, glutathione S-transferase (GST) (UniProt P08515 1-218 = GST); assay: ELISA, coated antigen, Ab up to 10.0 ug/ml
T4 construct: Coated on wells as control for the fusion partner of the immunogen
T4 sequence (P08515 whole entry, the tested form may be a part): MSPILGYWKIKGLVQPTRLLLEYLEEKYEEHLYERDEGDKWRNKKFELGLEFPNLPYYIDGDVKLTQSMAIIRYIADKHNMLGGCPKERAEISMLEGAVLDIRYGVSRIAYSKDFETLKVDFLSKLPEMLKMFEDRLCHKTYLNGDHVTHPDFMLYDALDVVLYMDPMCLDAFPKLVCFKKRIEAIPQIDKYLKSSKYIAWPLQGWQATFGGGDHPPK
Summary of the method: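 Wells were coated with glutathione S-transferase and handled by an ELISA protocol. Coating buffers were 0.2 M sodium phosphate pH 6.5 and 10 mM potassium phosphate pH 7.4, with BSA/sodium azide and sucrose solutions. Antibodies were applied up to 10.0 ug/ml. Bound rabbit antibody was detected with goat anti-rabbit IgG-HRP conjugate and bound mouse antibody with goat anti-mouse IgG-HRP conjugate.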

[3] = molecular target: Human Id1: Histidine (human) (UniProt P41134); assay: ELISA, coated antigen, Ab 2.50 ug/ml
[4] = molecular target: Human Id1: Histidine (human) (UniProt P41134); assay: ELISA, coated antigen, Ab 10.0 ug/ml
Mouse Id1: Histidine = molecular target: T1, Mouse Id1: Histidine; assay: ELISA, coated antigen, Ab 2.50 ug/ml
Method: (§1) Incubate plates at 2-8° C. overnight (16-24 hours). [0145] 11. Shake off the BSA solution. [0146] 12. Dispense 250 μL of 2.5% sucrose solution into each well. [0147] 13. Incubate plates at 2-8° C. for 4 hours. [0148] 14. Shake off sucrose solution. [0149] 15. Dry in vacuum at room temperature overnight. Screening Method [0150] 1. Dispense 100 μL of antibody diluent, diluted rabbit polyclonal anti-Id1 into appropriate wells. […] 2. Incubate at room temperature with mechanical shaking at 750 rpm for 90 minutes. [0152] 3. Remove the incubation mixture by flicking plate content into an appropriate waste container, followed by rinsing the wells 5 times with distilled water. […] 4. Strike the wells sharply onto absorbent paper or paper towels to remove all residual water droplets. [0154] 5. Dispense 100 μL of Goat Anti-Rabbit IgG-HRP Conjugate Reagent into each well. Gently mix for 5 seconds. [0155] 6. Incubate at room temperature with mechanical shaking at 750 rpm for 90 minutes. […] 7. Repeat procedures 3 and 4. [0157] 8. Dispense 100 μL of TMB Reagent into each well. Gently mix for 5 seconds. [0158] 9. Incubate at room temperature with mechanical shaking at 750 rpm for 20 minutes. [0159] 10. Add 100 μL of Stop Solution (1N HCl) into each well. [0160] 11. Gently mix for 10 seconds to ensure a complete mixing. […] 12. Read optical density (absorbance) at 450 nm. Results from this assay were used to select the rabbit sera with the highest antibodies titer that selectively reacts with mouse Id1 or human Id1 or both.
(§2) A comparison was carried out between the reactivity of the rabbit monoclonal anti-mouse Id1, clone #BCH-1/#37-2, of this invention and the mouse monoclonal anti-mouse/human Id1 from BD Pharmingen with the following antigens prepared in Example 5: mouse Id1:His, human Id1:His, human Id2:His, human Id3:His, and GST. These antigens and protein were used to coat the wells.
(§3) Materials and methods were those described in Example 9 except (a) Pharmingen's mouse monoclonal anti-mouse Id1 was used in addition to the rabbit monoclonal anti-mouse Id1 (Example 10), and (b) goat anti-mouse IgG-HRP conjugate was used to process the wells treated with the Pharmingen monoclonal antibody and polyclonal goat anti-rabbit IgG-HRP conjugate was used to process wells treated with rabbit monoclonal anti-mouse Id1.

[5] = molecular target: T4, glutathione S-transferase (GST); assay: ELISA, coated antigen, Ab 2.50 ug/ml
Method: as §1, §2, §3

Human Id2: Histidine = molecular target: T2, Human Id2: Histidine; assay: ELISA, coated antigen, Ab 2.50 ug/ml
Method: as §1, §2, §3

Human Id3: Histidine = molecular target: T3, Human Id3: Histidine; assay: ELISA, coated antigen, Ab 2.50 ug/ml
Method: as §1, §2, §3

[6] = molecular target: Human Id1: Histidine (human) (UniProt P41134); assay: ELISA, coated antigen, Ab 1.00 ug/ml

Row | Molecule | A450 [1] [A450] | binding result [2] | A450 [3] [A450] | A450 [4] [A450] | A450 (Mouse Id1: Histidine) [A450] | A450 [5] [A450] | A450 (Human Id2: Histidine) [A450] | A450 (Human Id3: Histidine) [A450] | A450 [6] [A450]
1 | rabbit monoclonal anti-human Id1, clone #BCH-2/#5-3 (antibody) | 0.124 | – | – | – | – | – | – | – | –
2 | B1 | – | no binding | 0.132 | 0.194 | 3.16 | 0.068 | 0.07 | 0.069 | 0.113
